Assay [1] has as its target hemoglobin (with bound heme) (bovine) (UniProt P01966). Put plainly: SPR.
Assay [2] deals with apo-hemoglobin (hemoglobin lacking heme) (bovine) (UniProt P01966). In words: SPR. For orientation: In SPR one partner is held on a chip, and binding of the other changes the refractive index at the surface.

The results in this text go back to PMC2515342.

In general, Kd refers to the free concentration of one partner at which half of the binding sites on the other are occupied at equilibrium, for simple one-to-one binding. Take “IsdX1 (GST removed with thrombin) (domain or fragment)”: the Kd turned out to be 0.00733 mM in assay [1] and 9.43 mM in assay [2].
